Here are results for 103 substances from the supplement of paper PMC12042874.

This data set is described as follows: amyloid nucleation score (Sup35N fusion, yeast selection) (log enrichment); library NNK2; higher = more nucleation; inactive = no reads after selection. The essentials: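 Plasmid inserts were Illumina-sequenced at input and output from psi-negative yeast expressing Sup35N fused to peptides of 20 random codons. The yeast were induced with 100 μM copper sulfate for 24 hours and grown 7 days at 30°C on medium lacking adenine and uracil, and sequences with under 100 input reads were excluded. Nucleation score is the DiMSum log enrichment of output over input reads, centred on the mode score of non-aggregating sequences.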

± gives the uncertainty stated by the source.

For the substance YTAWMALKNGRLVSGFKAR, the amyloid nucleation score came out at 0.009 ± 0.34.

LVMVCMVSFENHYMLGTEVL had an amyloid nucleation score of 2.71 ± 0.14.

VMWDNVLSVLLVSGRVAFPM came in with an amyloid nucleation score of 2.87 ± 0.099.

On to CMNSSDLECPMGDCVCVVLN, for which the amyloid nucleation score came to 2.82 ± 0.1.

For the substance HFVNMHH, the amyloid nucleation score is -0.213 ± 0.76.

Substance RNHFLLCFLRCNEEYAQVRG returned an amyloid nucleation score of 3.69 ± 0.059.

ETKWPDHYK: the amyloid nucleation score came to 0.515 ± 0.64.

Turning to VGRIEGHFYRSDCRQTYLYQ, the amyloid nucleation score is -0.785 ± 0.74.

With YISRILYHNGKSDRDGQRDY, the amyloid nucleation score is -0.119 ± 0.65.

For TDCRFIIVYMVIGSFLYTRV, the amyloid nucleation score was -0.747 ± 1.1.

LYEYHHGFVCQRVCGAIVGR registered an amyloid nucleation score of 1.23 ± 0.43.

Take INLYPR: the amyloid nucleation score entry is “inactive”.

VVQGVIFNGDMLNRGSLGKI displayed an amyloid nucleation score of -0.129 ± 0.79.

LLLNLMLVHTSMTFVRIKLR registered an amyloid nucleation score of 3.13 ± 0.12.

Regarding YLVNNNFFVTIVILVWRTGV, the amyloid nucleation score turned out to be 1.39 ± 0.18.

Take SGSHVYFKSCTGLKLPIVLG: the amyloid nucleation score is 4.498 ± 0.04.

RVSHREFYLRGTLVETLLDD: the amyloid nucleation score result was “inactive”.

The substance LLERSRSSIMCTTNRSLELI displayed an amyloid nucleation score of 3.18 ± 0.055.

In the case of YCGVSLFSINTYSY, the amyloid nucleation score is 6.94 ± 0.05.

Turning to VVNSGICSYRCFTVGQVTYK, the amyloid nucleation score is -0.553 ± 0.55.

With NHVARMFLKQRFFSNMS, the amyloid nucleation score result was “inactive”.

Regarding YLLRYYGGSFNHLMCWFRSP, the amyloid nucleation score turned out to be 2.6 ± 0.06.

As to GHFAF, the amyloid nucleation score was -0.159 ± 1.1.

Substance VLATSFNFELGSGRTDLCRV showed an amyloid nucleation score of -0.805 ± 0.46.

Regarding WYALARCYCDGPFSGGWFRM, the amyloid nucleation score is -0.022 ± 0.27.

HSLFSIAWFVAQYMNFGPDN showed an amyloid nucleation score of 3.1 ± 0.18.

In turn, FIRYS showed an amyloid nucleation score of 1.79 ± 0.084.

FAWNMLS: the amyloid nucleation score stood at 0.285 ± 0.74.

In the case of MVANG, the amyloid nucleation score worked out at 0.317 ± 0.62.

Regarding MCVYCVDYWGACRLEILALW, the amyloid nucleation score is -0.423 ± 0.41.

The substance LFAYNDAFSEYFTITYVYQ returned an amyloid nucleation score of -1.14 ± 1.1.

In turn, FFNAR registered an amyloid nucleation score of -0.951 ± 0.62.

In turn, GFIVRMDTMLSSALASYCRL gave an amyloid nucleation score of -0.25 ± 0.63.

TKVMQGVNSMARGV displayed an amyloid nucleation score of 1.08 ± 0.39.

KYERYLNRFSLLLRTAMVHR registered an amyloid nucleation score of -0.362 ± 0.29.

With KNDLPRKKVL, the amyloid nucleation score was found to be 0.128 ± 0.4.

On to KVIMVLFRFDMSIWGWQTDI, for which the amyloid nucleation score was -0.628 ± 0.76.

Substance DSGLVLNAGIIGSV gave an amyloid nucleation score of -1.11 ± 0.49.

As for FCRWSVTFNFRSMIGPGS, the amyloid nucleation score stood at 5.344 ± 0.035.

WLNYLGFISFRICH showed an amyloid nucleation score of -1.66 ± 0.41.

LMLAYRLIFDDNRTGLSSAS: the amyloid nucleation score stood at 0.211 ± 0.5.

MMGWFPRKLES had an amyloid nucleation score of -0.125 ± 0.41.

For the substance YISVCSYCH, the amyloid nucleation score stood at 4.9 ± 0.056.

In turn, HNNGRSFYEKAMVDLGGAWL showed an amyloid nucleation score of 0.263 ± 0.64.

Substance ILLRWNSTSTEVHHVGPTWV yielded an amyloid nucleation score of 0.872 ± 0.42.

Consider YRYCSCMNLAWERFGNPEGQ, for which the amyloid nucleation score is -0.399 ± 0.46.

GLLVELWSLLIIRYNLSAYL returned an amyloid nucleation score of -0.841 ± 0.48.

Regarding YWLNMWFYRSSASYRSMDMD, the amyloid nucleation score was -0.713 ± 0.55.

DESWETIFLYKCRGQNW yielded an amyloid nucleation score of -0.213 ± 1.1.

The substance WYKVDFNAWLFCKTIAHIFA yielded an amyloid nucleation score of -1.1 ± 0.45.

LTNCRIVLSLNQARVRIESI registered an amyloid nucleation score of 0.218 ± 0.8.

The substance MLIDSWSVAIYICLLLIQVQ returned an amyloid nucleation score of 1.34 ± 0.13.

With LCGSQFL, the amyloid nucleation score worked out at 0.705 ± 0.66.

As for YYLGWIMLVHYGSWTTCLVR, the amyloid nucleation score was determined as 0.531 ± 0.64.

HCLVIFNEIYRL showed an amyloid nucleation score of 7.137 ± 0.071.

IHNDCKLPMFVIMFS had an amyloid nucleation score of 6 ± 0.082.

Consider RTMWSIFHYSTVVSRVSTMA, for which the amyloid nucleation score is 1.23 ± 0.45.

As to TKYDLHPMIVSFECDRHLMW, the amyloid nucleation score stood at 0.411 ± 0.49.

The substance WLYCVVTS registered an amyloid nucleation score of 1.63 ± 0.42.

As to REAAVHRLIAWIGFRCRCQV, the amyloid nucleation score was -0.317 ± 1.1.

Turning to ESIYLVGICGSSG, the amyloid nucleation score is 0.247 ± 1.

With WYAAGLKNR, the amyloid nucleation score was -0.418 ± 1.

On to LTGTMVMIVNPLDCVLGVER, for which the amyloid nucleation score stood at 5.01 ± 0.085.

Substance IRFTKYNDGCILIMPRDVQV yielded an amyloid nucleation score of -0.995 ± 0.55.

For the substance SVYENYRVTISLSRSSITSC, the amyloid nucleation score is -1.1 ± 0.61.

As to IPYLNFDLYWLPVI, the amyloid nucleation score is -0.792 ± 0.48.

Consider REFLMD, for which the amyloid nucleation score entry is “inactive”.

On to SFLVISWRADRFAA, for which the amyloid nucleation score is 5.124 ± 0.042.

Regarding LTVLFLYLSLRCHSYNPAHA, the amyloid nucleation score was -0.841 ± 1.1.

In turn, PASTREDGWFYCAHSVVSSQ showed an amyloid nucleation score of 0.346 ± 0.54.

As for QYWQYWSWIGCVCLLCGWRF, the amyloid nucleation score was 0.91 ± 0.26.

The substance TLFRSELFAV returned an amyloid nucleation score of 0.495 ± 0.56.

The substance IAVRDALVSVQLLPPENVGV had an amyloid nucleation score of 1.13 ± 0.15.

As for PMLEFWFMAWIEMFTYKKCC, the amyloid nucleation score was 1.8 ± 0.53.

For the substance SFDSVELARGTASCRVAYFV, the amyloid nucleation score is 0.731 ± 0.35.

With VFRDLSIERFIRSYVNCDRG, the amyloid nucleation score entry was “inactive”.

Regarding GFWVDQNSDPNWVSQAPDFM, the amyloid nucleation score result is “inactive”.

As to GGLWTGLVSASKEFSK, the amyloid nucleation score result is “inactive”.

Take LISLTPRSSRPSNERNSSTL: the amyloid nucleation score is 1.63 ± 0.47.

The substance KTMANI had an amyloid nucleation score of -0.403 ± 0.37.

IPFLLTHDEHAAGCPAMKSY yielded an amyloid nucleation score of 0.223 ± 0.33.

As to SLVNYPMKVIGVVRKFW, the amyloid nucleation score was found to be 2.08 ± 0.13.

TFSVQAVNLFSIWVLSGPGD yielded an amyloid nucleation score of 8.02 ± 0.034.

CTPNWRLSSFRWYVLRTFSE came in with an amyloid nucleation score of 0.052 ± 0.37.

Consider EFIAISLSFVPLYRVVSGSG, for which the amyloid nucleation score is -0.674 ± 0.79.

Substance IGRCDELGRCRTRARACSGL returned an amyloid nucleation score of 7.78 ± 0.084.

Regarding CFVRTVFL, the amyloid nucleation score entry was “inactive”.

The substance WFGYIYFHTTYSFFGHPAAT had an amyloid nucleation score of -1.5 ± 1.1.

DSVFNMTIADECFG registered an amyloid nucleation score of -1.06 ± 1.1.

RERDNVMDIVGSAMRDCCQF had an amyloid nucleation score of 0.282 ± 0.25.

Substance HLESAWSRVSTDRCTNTWTV showed an amyloid nucleation score of 0.506 ± 0.45.

Consider FIRYVCHNVWDICYHLEMLL, for which the amyloid nucleation score result was “inactive”.

The substance EFNCYGWKRRKRRCWGGKCR displayed an amyloid nucleation score of 0.726 ± 0.41.

MDWIPLMPTYGIWLPC showed an amyloid nucleation score of 0.045 ± 0.41.

In turn, VYCSSCSVFLLCVKNLSWCV returned an amyloid nucleation score of 8.658 ± 0.053.

SFPYNHFYMDYMPVRAPLVV showed an amyloid nucleation score of -0.153 ± 1.1.

Consider IVLLPWSCEM, for which the amyloid nucleation score is 1.26 ± 0.19.

Turning to GLTLMWALFGSVYGLRSGMG, the amyloid nucleation score amounted to 0.89 ± 0.28.

GCIAIIDWMNLTLFTLLLSS: the amyloid nucleation score was -0.375 ± 0.76.

In the case of VLSYSVFTLRLATKIVP, the amyloid nucleation score is -0.337 ± 1.1.

As for LCFYPVTTCKPIFRPLYVLP, the amyloid nucleation score was 0.562 ± 0.45.

As to PMMWESESYPLIF, the amyloid nucleation score is -0.268 ± 0.79.

Turning to QVSDVRDLNFWISVTHVEVG, the amyloid nucleation score was 3.4 ± 0.12.
